From article PMC9723501 (Nucleic Acids Research, 2022)

How the values were obtained:
[1] = biological target: the molecule itself; experiment: ITC
[2] = biological target: the molecule itself; experiment: SEC-MALS

B1: PV 2C NΔ39 (poliovirus 2C protein lacking the amino-terminal 39 residues) (domain or fragment)
chain: ARDKLEFVTKLRQLEMLENQISTIHQSCPSQEHQEILFNNVRWLSIQSKRFAPLYAVEAKRIQKLEHTINNYIQFKSKHRIEPVCLLVHGSPGTGKSVATNLIARAIAERENTSTYSLPPDPSHFDGYKQQGVVIMDDLNQNPDGADMKLFCQMVSTVEFIPPMASLEEKGILFTSNYVLASTNSSRISPPTVAHSDALARRFAFDMDIQVMNEYSRDGKLNMAMATEMCKNCHQPANFKRCCPLVCGKAIQLMDKSSRVRYSIDQITTMIINERNRRSNIGNCMEALFQ
Question: With B1 as the protein, how does the Kd [1] read?
Answer: ~400 nM

Question: What about the “stoichiometry N” value [2] of the same protein?
Answer: 2
